T1: ARHGAP21, Q5T5U3
T1 sequence (Q5T5U3 45-169, limits assumed, looked up): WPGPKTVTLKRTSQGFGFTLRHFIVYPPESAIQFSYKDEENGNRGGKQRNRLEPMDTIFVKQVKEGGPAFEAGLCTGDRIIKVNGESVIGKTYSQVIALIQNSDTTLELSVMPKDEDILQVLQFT

T2: CARD11, Q9BXL7
T2 sequence (Q9BXL7 662-765, limits assumed, looked up): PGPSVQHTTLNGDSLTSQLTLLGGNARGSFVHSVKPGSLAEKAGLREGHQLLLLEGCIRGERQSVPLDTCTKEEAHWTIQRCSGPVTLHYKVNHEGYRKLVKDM

T3: FRMPD1, Q5SYB0
T3 sequence (Q5SYB0 52-145, limits assumed, looked up): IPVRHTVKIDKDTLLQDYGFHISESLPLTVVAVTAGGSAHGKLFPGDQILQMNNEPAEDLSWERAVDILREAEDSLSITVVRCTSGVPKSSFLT

T4: LIN7A, O14910
T4 sequence (O14910 103-200, limits assumed, looked up): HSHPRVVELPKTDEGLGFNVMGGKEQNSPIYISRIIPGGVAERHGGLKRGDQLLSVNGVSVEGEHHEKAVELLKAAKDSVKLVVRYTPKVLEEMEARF

T5: LNX2_3, Q8N448
T5 sequence (Q8N448 463-564, limits assumed, looked up): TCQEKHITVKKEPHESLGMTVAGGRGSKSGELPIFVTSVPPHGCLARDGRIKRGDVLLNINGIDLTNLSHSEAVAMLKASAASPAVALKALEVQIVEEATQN

T6: MPP2, Q14168
T6 sequence (Q14168 180-250, limits assumed, looked up): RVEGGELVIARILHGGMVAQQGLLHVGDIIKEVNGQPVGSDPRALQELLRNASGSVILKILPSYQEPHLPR

T7: PARD3B_1, Q8TEW8
T7 sequence (Q8TEW8 196-299, limits assumed, looked up): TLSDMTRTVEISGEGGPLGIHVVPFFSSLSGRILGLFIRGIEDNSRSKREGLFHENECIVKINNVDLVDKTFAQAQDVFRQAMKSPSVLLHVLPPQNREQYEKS

T8: PDZRN3_1, Q9UPQ7
T8 sequence (Q9UPQ7 244-349, limits assumed, looked up): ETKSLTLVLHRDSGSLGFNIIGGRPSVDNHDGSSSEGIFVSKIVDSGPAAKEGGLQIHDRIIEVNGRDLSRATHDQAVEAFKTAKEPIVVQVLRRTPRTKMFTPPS

T9: RADIL, Q96JH8
T9 sequence (Q96JH8 971-1071, limits assumed, looked up): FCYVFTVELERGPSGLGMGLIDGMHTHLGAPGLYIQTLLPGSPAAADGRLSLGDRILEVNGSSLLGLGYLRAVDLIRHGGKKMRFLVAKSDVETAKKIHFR


Key:
Test in all cases: holdup assay
Design in all cases: key: below the threshold = too weak to quantify, mostly under pKd 3.1 to 4
Conditions in all cases: plain residues with an end cap or a label only (N-terminal biotin on a linker: ado-ado)
ARHGAP21, Q5T5U3 = target: T1, ARHGAP21, Q5T5U3
ARHGEF12, Q9NZN5-2 = target: ARHGEF12, Q9NZN5-2
ARHGEF12, Q9NZN5-2, sequence (Q9NZN5 other isoform, or with tags, fused parts or gaps): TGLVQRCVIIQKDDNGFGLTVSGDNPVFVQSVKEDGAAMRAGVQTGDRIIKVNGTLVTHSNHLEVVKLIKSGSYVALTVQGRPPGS

CARD11, Q9BXL7 = target: T2, CARD11, Q9BXL7
DLG2_2, Q15700 = target: DLG2_2, Q15700
DLG2_2, Q15700, sequence (Q15700 189-283): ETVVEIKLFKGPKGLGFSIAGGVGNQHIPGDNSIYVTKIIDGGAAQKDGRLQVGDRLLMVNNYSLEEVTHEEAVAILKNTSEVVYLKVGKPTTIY

DLG4_1, P78352 = target: DLG4_1, P78352
DLG4_1, P78352, sequence (P78352 62-152): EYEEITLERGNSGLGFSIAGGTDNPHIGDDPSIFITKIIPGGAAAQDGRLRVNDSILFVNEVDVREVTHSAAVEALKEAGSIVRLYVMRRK

FRMPD1, Q5SYB0 = target: T3, FRMPD1, Q5SYB0
FRMPD3, Q5JV73 = target: FRMPD3, Q5JV73
FRMPD3, Q5JV73, sequence (Q5JV73 12-100): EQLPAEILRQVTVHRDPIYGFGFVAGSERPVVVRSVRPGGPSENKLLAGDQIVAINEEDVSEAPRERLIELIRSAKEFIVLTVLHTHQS

GIPC2, Q8TF65 = target: GIPC2, Q8TF65
GIPC2, Q8TF65, sequence (Q8TF65 112-203): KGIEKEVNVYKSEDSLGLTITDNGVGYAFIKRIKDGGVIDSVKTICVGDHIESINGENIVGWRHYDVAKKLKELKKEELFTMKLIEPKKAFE

GRASP, Q7Z6J2 = target: GRASP, Q7Z6J2
GRASP, Q7Z6J2, sequence (Q7Z6J2 96-193): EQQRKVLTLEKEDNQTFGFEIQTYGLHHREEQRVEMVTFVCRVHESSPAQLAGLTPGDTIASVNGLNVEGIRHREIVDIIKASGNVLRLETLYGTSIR

GRIP2_6, Q9C0E4 = target: GRIP2_6, Q9C0E4
GRIP2_6, Q9C0E4, sequence (Q9C0E4 648-740): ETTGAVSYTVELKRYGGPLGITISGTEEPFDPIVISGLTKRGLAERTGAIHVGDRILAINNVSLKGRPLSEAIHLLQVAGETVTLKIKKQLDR

Inadl_10, Q8NI35 = target: Inadl_10, Q8NI35
Inadl_10, Q8NI35, sequence (Q8NI35 1673-1763): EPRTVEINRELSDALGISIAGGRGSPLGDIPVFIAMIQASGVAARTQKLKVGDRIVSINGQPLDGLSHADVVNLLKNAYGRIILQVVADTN

Inadl_3, Q8NI35 = target: Inadl_3, Q8NI35
Inadl_3, Q8NI35, sequence (Q8NI35 359-469): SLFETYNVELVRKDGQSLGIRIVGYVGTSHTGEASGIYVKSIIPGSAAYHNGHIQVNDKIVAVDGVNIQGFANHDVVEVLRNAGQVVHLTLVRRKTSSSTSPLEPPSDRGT

Inadl_8, Q8NI35 = target: Inadl_8, Q8NI35
Inadl_8, Q8NI35, sequence (Q8NI35 1425-1530): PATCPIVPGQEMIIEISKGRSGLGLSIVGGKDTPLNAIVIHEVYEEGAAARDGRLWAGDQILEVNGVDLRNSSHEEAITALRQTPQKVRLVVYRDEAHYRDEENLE

LDB3, O75112 = target: LDB3, O75112
LDB3, O75112, sequence (O75112 1-94): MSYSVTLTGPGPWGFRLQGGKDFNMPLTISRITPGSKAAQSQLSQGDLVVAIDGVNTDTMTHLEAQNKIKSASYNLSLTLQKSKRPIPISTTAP

LIMK2, P53671 = target: LIMK2, P53671
LIMK2, P53671, sequence (P53671 143-248): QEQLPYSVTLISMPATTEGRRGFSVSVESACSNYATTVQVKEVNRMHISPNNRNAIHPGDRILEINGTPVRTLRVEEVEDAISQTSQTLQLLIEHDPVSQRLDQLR

LIN7A, O14910 = target: T4, LIN7A, O14910
LNX2_3, Q8N448 = target: T5, LNX2_3, Q8N448
MAGI1_1, Q96QZ7 = target: MAGI1_1, Q96QZ7
MAGI1_1, Q96QZ7, sequence (Q96QZ7 1-106): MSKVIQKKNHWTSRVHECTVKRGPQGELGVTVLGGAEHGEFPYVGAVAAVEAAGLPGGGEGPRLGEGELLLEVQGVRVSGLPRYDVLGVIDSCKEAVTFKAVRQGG

MAGI2_5, Q86UL8 = target: MAGI2_5, Q86UL8
MAGI2_5, Q86UL8, sequence (Q86UL8 915-1017): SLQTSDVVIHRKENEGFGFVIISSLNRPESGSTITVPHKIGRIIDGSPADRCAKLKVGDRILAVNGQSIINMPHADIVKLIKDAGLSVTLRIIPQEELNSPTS

MAGI2_6, Q86UL8 = target: MAGI2_6, Q86UL8
MAGI2_6, Q86UL8, sequence (Q86UL8 1141-1229): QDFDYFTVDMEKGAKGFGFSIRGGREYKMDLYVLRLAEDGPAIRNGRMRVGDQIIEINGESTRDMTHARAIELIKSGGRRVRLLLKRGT

MAST2, Q6P0Q8 = target: MAST2, Q6P0Q8
MAST2, Q6P0Q8, sequence (Q6P0Q8 1099-1202): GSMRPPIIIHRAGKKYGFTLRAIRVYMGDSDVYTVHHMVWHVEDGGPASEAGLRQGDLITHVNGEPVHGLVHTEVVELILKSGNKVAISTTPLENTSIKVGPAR

MPP2, Q14168 = target: T6, MPP2, Q14168
NHERF4_1, Q86UT5-2 = target: NHERF4_1, Q86UT5-2
NHERF4_1, Q86UT5-2, sequence (Q86UT5 other isoform, or with tags, fused parts or gaps): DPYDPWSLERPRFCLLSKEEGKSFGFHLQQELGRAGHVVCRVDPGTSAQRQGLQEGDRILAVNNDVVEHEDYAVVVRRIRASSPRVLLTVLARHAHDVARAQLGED

PARD3B_1, Q8TEW8 = target: T7, PARD3B_1, Q8TEW8
PDZRN3_1, Q9UPQ7 = target: T8, PDZRN3_1, Q9UPQ7
PTPN3, P26045 = target: PTPN3, P26045
PTPN3, P26045, sequence (P26045 505-587): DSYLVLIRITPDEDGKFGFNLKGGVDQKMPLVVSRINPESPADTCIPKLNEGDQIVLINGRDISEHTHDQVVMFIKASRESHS

RADIL, Q96JH8 = target: T9, RADIL, Q96JH8
SCRIB_1, Q14160 = target: SCRIB_1, Q14160
SCRIB_1, Q14160, sequence (Q14160 718-814): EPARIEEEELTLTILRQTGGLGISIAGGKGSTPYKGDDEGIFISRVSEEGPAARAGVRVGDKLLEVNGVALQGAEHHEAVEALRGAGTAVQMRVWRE

SNX27, Q96L92 = target: SNX27, Q96L92

Binder	pKd (ARHGAP21, Q5T5U3)	pKd (ARHGEF12, Q9NZN5-2)	pKd (CARD11, Q9BXL7)	pKd (DLG2_2, Q15700)	pKd (DLG4_1, P78352)	pKd (FRMPD1, Q5SYB0)	pKd (FRMPD3, Q5JV73)	pKd (GIPC2, Q8TF65)	pKd (GRASP, Q7Z6J2)	pKd (GRIP2_6, Q9C0E4)	pKd (Inadl_10, Q8NI35)	pKd (Inadl_3, Q8NI35)	pKd (Inadl_8, Q8NI35)	pKd (LDB3, O75112)	pKd (LIMK2, P53671)	pKd (LIN7A, O14910)	pKd (LNX2_3, Q8N448)	pKd (MAGI1_1, Q96QZ7)	pKd (MAGI2_5, Q86UL8)	pKd (MAGI2_6, Q86UL8)	other results
TGLWKHETTV [ADGRA3, Q8IWK6]	3.92	4.06	below the threshold	5.4	5.21	below the threshold	below the threshold	4.1	3.55	3.55	below the threshold	3.86	below the threshold	below the threshold	below the threshold	4.19	below the threshold	below the threshold	4.41	3.86	pKd (MAST2, Q6P0Q8): 5.47; pKd (MPP2, Q14168): below the threshold; pKd (NHERF4_1, Q86UT5-2): below the threshold; pKd (PARD3B_1, Q8TEW8): below the threshold; pKd (PDZRN3_1, Q9UPQ7): 4.25; pKd (PTPN3, P26045): 4.5; pKd (RADIL, Q96JH8): 4.43; pKd (SCRIB_1, Q14160): 4.74; pKd (SNX27, Q96L92): 5.41
QKAPTKEFYA [SDC2, P34741]	below the threshold	below the threshold	below the threshold	below the threshold	below the threshold	below the threshold	3.89	below the threshold	below the threshold	4.1	below the threshold	below the threshold	below the threshold	below the threshold	below the threshold	below the threshold	below the threshold	below the threshold	below the threshold	below the threshold	pKd (MAST2, Q6P0Q8): 3.82; pKd (MPP2, Q14168): below the threshold; pKd (NHERF4_1, Q86UT5-2): 3.57; pKd (PARD3B_1, Q8TEW8): 4.39; pKd (PDZRN3_1, Q9UPQ7): below the threshold; pKd (PTPN3, P26045): 4.2; pKd (RADIL, Q96JH8): 3.51; pKd (SCRIB_1, Q14160): below the threshold; pKd (SNX27, Q96L92): below the threshold

Source: paper PMC9482650, “Quantitative fragmentomics allow affinity mapping of interactomes” (Nature Communications, 2022)
